We go through one substance from paper PMC3949579.

Experiment [1] addresses M2139Ig (full recombinant mouse IgG2b antibody with the M2139 sequence) (mouse). The experiment is described as follows: SPR. A general note: SPR reads the build-up and loss of mass on a sensor chip optically.
The target in experiment [2] is DBAIg (full recombinant mouse IgG2b antibody encoding the DBA/1J Ighv1-4 germline sequence) (mouse (DBA/1J) | mouse). Put plainly: SPR.

By Kd is commonly meant the free concentration of one partner at which half of the binding sites on the other are occupied at equilibrium, for simple one-to-one binding. The koff is the rate constant with which the complex falls apart. One may read the kon as the rate constant with which the complex forms. Regarding “triple-helical J1 peptide (synthetic peptide containing the J1 epitope of type II collagen)”, in experiment [1], the dissociation constant Kd is 38.8 nM, the koff worked out at 0.00268 s⁻¹ and the kon is 68900 M⁻¹ s⁻¹. In addition, in experiment [2], the Kd came out at 274 nM, the koff stood at 0.00446 s⁻¹ and the kon was determined as 16300 M⁻¹ s⁻¹.
